Experimental data from patent publication US20160251438A1 (LUDWIG INSTITUTE FOR CANCER RESEARCH, published 2016).

Tests used:
Experiment in all cases: flow cytometry on transfected 293T cells, 5 ug/ml; grade of Loss of binding read by footnote 2
[1] = biological target: GARP G118L/G119L / TGF-β1 complex (human, UniProt Q14392 20-662; P01137 30-390)
Text: (§1) Resolution of the crystal structure of MHG-8 Fab/GARP/TGF-β1 complexes and analysis with the CONTACT software allowed the identification of 22 amino-acids in GARP, 8 amino-acids in LAP and 6 amino-acids in mature TGF-β1 that are located less than 5 Å away from an amino-acid of the light or heavy chain of the MHG-8 Fab (Tables 7a, b and c, and Table 8). Directed mutagenesis was used to construct plasmids encoding HA-tagged forms of GARP or TGF-β1 that are mutated at one, two, or three of these 36 positions (all mutations constructed are indicated in Table 8). […] Antibodies were used at a saturating concentration of 5 μg/ml for labeling. Binding of each antibody to a given mutant GARP/TGF-β1 complex was compared to their binding to wild type (WT) complexes, by determining an I_{m/wt} value (i.e. intensity of binding to mutant by comparison to WT). This value was calculated as follows: I_{m/wt} of antibody X=[Geom on mutant−Geom on control]/[Geom on WT−Geom on control]
(§2) The level of residual binding of anti-GARP or anti-LAP antibodies to each mutant was then calculated by comparison to WT, taking into account the expression levels of mutant and WT forms as measured with anti-HA antibodies. Residual binding was calculated as follows: Residual binding by an anti-GARP or anti-LAP antibody=[I_{m/wt} with anti-GARP or anti-LAP antibody]/[I_{m/wt} with anti-HA antibody]

[2] = biological target: GARP R163A/T165A / TGF-β1 complex (human, UniProt Q14392 20-662; P01137 30-390)
Text: as §1, §2

[3] = biological target: GARP E189A / TGF-β1 complex (human, UniProt Q14392 20-662; P01137 30-390)
Text: as §1, §2

[4] = biological target: GARP / TGF-β1 Q269Y complex (human, UniProt Q14392 20-662; P01137 30-390)
Text: as §1, §2

[5] = biological target: GARP Y137H/S138G/G139N / TGF-β1 complex (human, UniProt Q14392 20-662; P01137 30-390)
Text: as §1, §2

[6] = biological target: GARP M111T/A112G/T113M / TGF-β1 complex (human, UniProt Q14392 20-662; P01137 30-390)
Text: as §1, §2

[7] = biological target: GARP A114R / TGF-β1 complex (human, UniProt Q14392 20-662; P01137 30-390)
Text: as §1, §2

[8] = biological target: GARP R143A / TGF-β1 complex (human, UniProt Q14392 20-662; P01137 30-390)
Text: as §1, §2

[9] = biological target: GARP / TGF-β1 Y284A complex (human, UniProt Q14392 20-662; P01137 30-390)
Text: as §1, §2

[10] = biological target: GARP / TGF-β1 Q345A complex (human, UniProt Q14392 20-662; P01137 30-390)
Text: as §1, §2

[11] = biological target: GARP / TGF-β1 A341Y complex (human, UniProt Q14392 20-662; P01137 30-390)
Text: as §1, §2

[12] = biological target: GARP T165A / TGF-β1 complex (human, UniProt Q14392 20-662; P01137 30-390)
Text: as §1, §2

[13] = biological target: GARP R163E / TGF-β1 complex (human, UniProt Q14392 20-662; P01137 30-390)
Text: as §1, §2

[14] = biological target: GARP / TGF-β1 Q272Y complex (human, UniProt Q14392 20-662; P01137 30-390)
Text: as §1, §2

[15] = biological target: GARP / TGF-β1 E146R complex (human, UniProt Q14392 20-662; P01137 30-390)
Text: as §1, §2

[16] = biological target: GARP A117R / TGF-β1 complex (human, UniProt Q14392 20-662; P01137 30-390)
Text: as §1, §2

[17] = biological target: GARP R166M/H167E / TGF-β1 complex (human, UniProt Q14392 20-662; P01137 30-390)
Text: as §1, §2

[18] = biological target: GARP / TGF-β1 S337A complex (human, UniProt Q14392 20-662; P01137 30-390)
Text: as §1, §2

GARP R163A/T165A / TGF-β1 complex, sequence (Q14392 20-662 R163A/T165A limits assumed, chain 1 of 2): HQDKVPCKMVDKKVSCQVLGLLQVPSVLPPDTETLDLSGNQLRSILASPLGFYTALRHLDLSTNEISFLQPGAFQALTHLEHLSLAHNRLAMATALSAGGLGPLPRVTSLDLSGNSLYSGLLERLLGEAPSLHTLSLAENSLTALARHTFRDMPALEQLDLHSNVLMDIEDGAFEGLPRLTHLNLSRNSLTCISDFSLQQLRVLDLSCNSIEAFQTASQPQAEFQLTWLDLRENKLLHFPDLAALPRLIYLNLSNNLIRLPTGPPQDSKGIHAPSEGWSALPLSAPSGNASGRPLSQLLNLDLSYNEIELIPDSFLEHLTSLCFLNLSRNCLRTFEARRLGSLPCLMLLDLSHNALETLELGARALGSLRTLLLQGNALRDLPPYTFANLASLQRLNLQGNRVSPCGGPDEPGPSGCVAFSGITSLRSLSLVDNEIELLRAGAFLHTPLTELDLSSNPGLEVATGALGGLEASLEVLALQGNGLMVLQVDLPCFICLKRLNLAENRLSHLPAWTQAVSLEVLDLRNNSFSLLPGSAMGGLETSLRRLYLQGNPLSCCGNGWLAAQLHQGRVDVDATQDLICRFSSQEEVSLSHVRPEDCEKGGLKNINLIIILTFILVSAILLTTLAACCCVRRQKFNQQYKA
GARP R163A/T165A / TGF-β1 complex, sequence (P01137 30-390 limits assumed, chain 2 of 2): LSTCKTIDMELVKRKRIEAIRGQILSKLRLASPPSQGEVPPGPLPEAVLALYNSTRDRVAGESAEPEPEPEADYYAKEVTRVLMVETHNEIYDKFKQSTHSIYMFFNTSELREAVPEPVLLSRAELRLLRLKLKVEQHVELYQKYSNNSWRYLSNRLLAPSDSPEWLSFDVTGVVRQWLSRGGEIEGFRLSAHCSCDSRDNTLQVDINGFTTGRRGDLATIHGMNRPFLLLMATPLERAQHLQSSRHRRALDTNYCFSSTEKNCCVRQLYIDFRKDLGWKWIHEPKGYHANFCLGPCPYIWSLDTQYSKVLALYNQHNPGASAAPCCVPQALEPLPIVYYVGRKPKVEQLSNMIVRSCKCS
GARP M111T/A112G/T113M / TGF-β1 complex, sequence (Q14392 20-662 M111T/A112G/T113M limits assumed, chain 1 of 2): as the sequence (Q14392 20-662 R163A/T165A limits assumed, chain 1 of 2) above, with M92T, A93G, T94M, A144R, A146T counted along it
GARP M111T/A112G/T113M / TGF-β1 complex, sequence (P01137 30-390 limits assumed, chain 2 of 2): as the sequence (P01137 30-390 limits assumed, chain 2 of 2) above
GARP R143A / TGF-β1 complex, sequence (Q14392 20-662 R143A limits assumed, chain 1 of 2): as the sequence (Q14392 20-662 R163A/T165A limits assumed, chain 1 of 2) above, with R124A, A144R, A146T counted along it
GARP R143A / TGF-β1 complex, sequence (P01137 30-390 limits assumed, chain 2 of 2): as the sequence (P01137 30-390 limits assumed, chain 2 of 2) above
GARP A114R / TGF-β1 complex, sequence (Q14392 20-662 A114R limits assumed, chain 1 of 2): as the sequence (Q14392 20-662 R163A/T165A limits assumed, chain 1 of 2) above, with A95R, A144R, A146T counted along it
GARP A114R / TGF-β1 complex, sequence (P01137 30-390 limits assumed, chain 2 of 2): as the sequence (P01137 30-390 limits assumed, chain 2 of 2) above

B1: LHG-10 (antibody, human IgG1, V domains shown)
VH: EVQLVQPGAELRNSGASVKVSCKASGYRFTSYYIDWVRQAPGQGLEWMGRIDPEDGGTKYAQKFQGRVTFTADTSTSTAYVELSSLRSEDTAVYYCARNEWETVVVGDLMYEYEYWGQGTQVTVSS
VL: DIQMTQSPTSLSASLGDRVTITCQASQSISSYLAWYQQKPGQAPKLLIYGASRLQTGVPSRFSGSGSGTSFTLTISGLEAEDAGTYYCQQYDSLPVTFGQGTKVELK
notes: llama-derived V regions in a full human IgG1
residual binding on mutant by comparison to WT [1]: ≥ 50% | residual binding on mutant by comparison to WT [2]: ≥ 50% | residual binding on mutant by comparison to WT [3]: ≥ 50% | residual binding on mutant by comparison to WT [4]: ≥ 50% | residual binding on mutant by comparison to WT [5]: < 50% | residual binding on mutant by comparison to WT [6]: ≥ 50% | residual binding on mutant by comparison to WT [7]: ≥ 50% | residual binding on mutant by comparison to WT [8]: ≥ 50% | residual binding on mutant by comparison to WT [9]: ≥ 50% | residual binding on mutant by comparison to WT [10]: ≥ 50% | residual binding on mutant by comparison to WT [11]: ≥ 50% | residual binding on mutant by comparison to WT [12]: ≥ 50% | residual binding on mutant by comparison to WT [13]: < 50% | residual binding on mutant by comparison to WT [14]: ≥ 50% | residual binding on mutant by comparison to WT [15]: ≥ 50% | residual binding on mutant by comparison to WT [16]: ≥ 50% | residual binding on mutant by comparison to WT [17]: ≥ 50% | residual binding on mutant by comparison to WT [18]: ≥ 50%
